Tests used:
[1] = tested on: GST-IL11(A) fusion protein [GST: P08515]
[2] = tested on: GST-IL11(LV-) fusion protein [GST: P08515]
[3] = tested on: GST-Thymosin β4 fusion protein [GST: P08515]
[4] = tested on: MBP-IL11 fusion protein [MBP: P0AEX9]
[5] = tested on: GST-IL6 fusion protein [GST: P08515]
[6] = tested on: T1, His-IL11 fusion protein
T1 sequence: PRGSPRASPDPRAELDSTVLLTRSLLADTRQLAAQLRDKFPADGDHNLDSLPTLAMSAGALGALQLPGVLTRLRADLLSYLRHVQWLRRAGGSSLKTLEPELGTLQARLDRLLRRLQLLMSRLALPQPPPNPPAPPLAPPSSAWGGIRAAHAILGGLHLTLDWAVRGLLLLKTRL

Row | Substance | thrombin cleavage of the fusion protein, SDS-PAGE time course [1] | thrombin cleavage of the fusion protein, SDS-PAGE time course [2] | integrity of released thymosin β4, MALDI-TOF/MS [3] | thrombin cleavage of the fusion protein, SDS-PAGE time course [3] | thrombin cleavage of the fusion protein, SDS-PAGE time course [4] | thrombin cleavage of the fusion protein, SDS-PAGE time course [5] | thrombin cleavage of the fusion protein, SDS-PAGE time course [6] | choice of cleavage site within the linker [1] | integrity of released IL-11, MALDI-TOF/MS [1]
1 | bovine thrombin | The GST fusion partner was efficiently cleaved by both bovine and human thrombin in the concentration ranges and the time points tested | – | – | – | – | – | – | – | –
2 | human thrombin | The GST fusion partner was efficiently cleaved by both bovine and human thrombin in the concentration ranges and the time points tested | – | – | – | – | – | – | – | –
3 | thrombin (species not stated) | – | The fusion protein GST-IL11(LV-) (44 kDa) gradually disappeared, and the amount of IL-11(LV-) (18 kDa) increased as reaction time passed | it was confirmed that intact thymosin β4 protein was generated after thrombin cleavage of GST-Thymosin β4 | The fusion protein GST-Thymosin β4 (31 kDa) gradually disappeared, and the amount of thymosin β4 (5 kDa) increased as reaction time passed | The fusion protein MBP-IL11 (60 kDa) gradually disappeared, and the amount of IL11 (18 kDa) increased as reaction time passed | The fusion protein GST-IL6 (46 kDa) gradually disappeared, and the amount of IL-6 (22 kDa) increased as reaction time passed | The fusion protein His-IL11 (22 kDa) gradually disappeared, and the amount of IL11 (18 kDa) increased as reaction time passed | thrombin cleavage occurs not at Arg↓Gly but at Arg↓Ala | it was confirmed that intact IL-11 protein was generated after thrombin cleavage of GST-IL11(A)
